From patent US12295987B2, “Method of using a GIP/GLP1 co-agonist for diabetes” (Eli Lilly and Company, priority 2018, dated 2025) come the findings set out here.

This experiment concerns the target T1, human gastric inhibitory peptide receptor (hGIPR) (Homo sapiens, UniProt P48546).
T1 construct: expressed in transfected cells; host or cells: HEK293
T1 sequence (P48546 22-466): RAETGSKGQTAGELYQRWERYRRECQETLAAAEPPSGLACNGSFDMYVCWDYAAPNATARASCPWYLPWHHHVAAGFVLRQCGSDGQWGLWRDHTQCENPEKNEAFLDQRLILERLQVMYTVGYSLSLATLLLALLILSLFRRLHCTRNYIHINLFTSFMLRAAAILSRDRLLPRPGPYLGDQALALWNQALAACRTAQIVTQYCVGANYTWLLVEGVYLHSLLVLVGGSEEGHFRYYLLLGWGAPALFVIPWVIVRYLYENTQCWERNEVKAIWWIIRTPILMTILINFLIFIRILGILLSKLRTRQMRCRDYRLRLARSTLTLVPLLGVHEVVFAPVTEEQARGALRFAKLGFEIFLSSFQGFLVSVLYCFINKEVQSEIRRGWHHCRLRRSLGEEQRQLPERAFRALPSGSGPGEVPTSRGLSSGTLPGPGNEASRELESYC
The experiment can be described thus: cAMP pharmacological functional assay in presence of 0.1% casein, hGIPR. Format: cell-based. To be noted: ratio of hGIPR to hGLP1R cAMP EC50 ratios.

As to “Y-Aib-EGT-αMeF-TSDYSI-αMeL-LDKK((2-[2-(2-Amino-ethoxy)-ethoxy]-acetyl)2-(γGlu)-CO—(CH2)18—CO2H)AQ-Aib-Aad-FIEYLIEGGPSSGAPPPS-NH2 (YXEGTXTSDYSIXLDKKAQXXFIEYLIEGGPSSGAPPPS; Aib, Aad, αMeF, αMeL; acylated lysine C20 diacid; amide; (2)..(2) Xaa at position 2 is Aib; (6)..(6) Xaa at position 6 is alpha-methyl-Phe; (13)..(13) Xaa at position 13 is alpha-methyl-Leu; MOD_RES (17)..(17) Lys at position 17 is chemically modified by conjugation of the epsilon-amino group of the Lys side chain with (2-[2-(2-amino-ethoxy)-ethoxy]-acetyl)2-(gamma-Glu)-CO-(CH2)18- CO2H; (20)..(20) Xaa at position 20 is Aib; (21)..(21) Xaa at position 2) [Peptide 137]”, the “[hGIPR/hGLP1R] EC50 Ratio” value is 3.58.
As to “Y-Aib-EGT-αMeF-TSDYSI-αMeL-LDKK((2-[2-(2-Amino-ethoxy)-ethoxy]-acetyl)2-(γGlu)-CO—(CH2)18—CO2H)AQ-Aib-Aib-FIEYLIEGGPSSGAPPPS-NH2 (YXEGTXTSDYSIXLDKKAQXXFIEYLIEGGPSSGAPPPS; Aib, αMeF, αMeL; acylated lysine C20 diacid; amide; (2)..(2) Xaa at position 2 is Aib; (6)..(6) Xaa at position 6 is alpha-methyl-Phe; (13)..(13) Xaa at position 13 is alpha-methyl-Leu; MOD_RES (17)..(17) Lys at position 17 is chemically modified by conjugation of the epsilon-amino group of the Lys side chain with (2-[2-(2-amino-ethoxy)-ethoxy]-acetyl)2-(gamma-Glu)-CO-(CH2)18- CO2H; (20)..(20) Xaa at position 20 is Aib; (21)..(21) Xaa at position 2) [Peptide 143]”, the “[hGIPR/hGLP1R] EC50 Ratio” value was determined as 3.89.
The figure for “Y-Aib-EGT-αMeF-TSDYSI-αMeL-LDKK((2-[2-(2-Amino-ethoxy)-ethoxy]-acetyl)2-(γGlu)-CO—(CH2)18—CO2H)AQ-Aib-DFIEYLIEGGPSSGAPPPS-NH2 (YXEGTXTSDYSIXLDKKAQXDFIEYLIEGGPSSGAPPPS; Aib, αMeF, αMeL; acylated lysine C20 diacid; amide; (2)..(2) Xaa at position 2 is Aib; (6)..(6) Xaa at position 6 is alpha-methyl-Phe; (13)..(13) Xaa at position 13 is alpha-methyl-Leu; MOD_RES (17)..(17) Lys at position 17 is chemically modified by conjugation of the epsilon-amino group of the Lys side chain with (2-[2-(2-amino-ethoxy)-ethoxy]-acetyl)2-(gamma-Glu)-CO-(CH2)18- CO2H; (20)..(20) Xaa at position 20 is Aib; MOD_RES (39)..(39) Ser at po) [Peptide 140]” is 3.24; for “Y-Aib-EGT-αMeF-TSDYSI-αMeL-LDKK((2-[2-(2-Amino-ethoxy)-ethoxy]-acetyl)2-(γGlu)-CO—(CH2)18—CO2H)AQ-Aib-EFI-(D-Glu)-YLIEGGPSSG-NH2 (YXEGTXTSDYSIXLDKKAQXEFIXYLIEGGPSSG; Aib, αMe, D-Glu, C20 diacid lipidation, C-amide; (2)..(2) Xaa at position 2 is Aib; (6)..(6) Xaa at position 6 is alpha-methyl-Phe; (13)..(13) Xaa at position 13 is alpha-methyl-Leu; MOD_RES (17)..(17) Lys at position 17 is chemically modified by conjugation of the epsilon-amino group of the Lys side chain with (2-[2-(2-amino-ethoxy)-ethoxy]-acetyl)2-(gamma-Glu)-CO-(CH2)18- CO2H; (20)..(20) Xaa at position 20 is Aib; (24)..(24) Xaa at position 2) [Peptide 228]” it is 3.51; for “Y-Aib-EGT-αMeF-TSDYSI-αMeL-LDKK((2-[2-(2-Amino-ethoxy)-ethoxy]-acetyl)2-(γGlu)-CO—(CH2)18—CO2H)AQ-Aib-EFIEYLIEGGPSSG-NH2 (YXEGTXTSDYSIXLDKKAQXEFIEYLIEGGPSSG; Aib, αMe residues, C20 diacid lipidation, C-amide; (2)..(2) Xaa at position 2 is Aib; (6)..(6) Xaa at position 6 is alpha-methyl-Phe; (13)..(13) Xaa at position 13 is alpha-methyl-Leu; MOD_RES (17)..(17) Lys at position 17 is chemically modified by conjugation of the epsilon-amino group of the Lys side chain with (2-[2-(2-amino-ethoxy)-ethoxy]-acetyl)2-(gamma-Glu)-CO-(CH2)18- CO2H; (20)..(20) Xaa at position 20 is Aib; MOD_RES (34)..(34) Gly at po) [Peptide 123]” it is 2.56.
The figure for “Y-Aib-EGT-αMeF-TSDYSI-αMeL-LDKK((2-[2-(2-Amino-ethoxy)-ethoxy]-acetyl)2-(γGlu)-CO—(CH2)18—CO2H)AQ-Aib-TFIEYLIEGGPSSGAPPPS-NH2 (YXEGTXTSDYSIXLDKKAQXTFIEYLIEGGPSSGAPPPS; Aib, αMeF, αMeL; acylated lysine C20 diacid; amide; (2)..(2) Xaa at position 2 is Aib; (6)..(6) Xaa at position 6 is alpha-methyl-Phe; (13)..(13) Xaa at position 13 is alpha-methyl-Leu; MOD_RES (17)..(17) Lys at position 17 is chemically modified by conjugation of the epsilon-amino group of the Lys side chain with (2-[2-(2-amino-ethoxy)-ethoxy]-acetyl)2-(gamma-Glu)-CO-(CH2)18- CO2H; (20)..(20) Xaa at position 20 is Aib; MOD_RES (39)..(39) Ser at po) [Peptide 139]” is 3.19.
Regarding “Y-Aib-EGT-αMeF-TSDYSI-αMeL-LDKK((2-[2-(2-Amino-ethoxy)-ethoxy]-acetyl)2-(γGlu)-CO—(CH2)18—CO2H)AQH-Aib-FIEYLIEGGPSSGAPPPS-NH2 (YXEGTXTSDYSIXLDKKAQHXFIEYLIEGGPSSGAPPPS; Aib, αMeF, αMeL; acylated lysine C20 diacid; amide; (2)..(2) Xaa at position 2 is Aib; (6)..(6) Xaa at position 6 is alpha-methyl-Phe; (13)..(13) Xaa at position 13 is alpha-methyl-Leu; MOD_RES (17)..(17) Lys at position 17 is chemically modified by conjugation of the epsilon-amino group of the Lys side chain with (2-[2-(2-amino-ethoxy)-ethoxy]-acetyl)2-(gamma-Glu)-CO-(CH2)18- CO2H; (21)..(21) Xaa at position 21 is Aib; MOD_RES (39)..(39) Ser at po) [Peptide 144]”, the “[hGIPR/hGLP1R] EC50 Ratio” value worked out at 4.23.
The figure for “Y-Aib-EGT-αMeF-TSDYSI-αMeL-LDSK((2-[2-(2-Amino-ethoxy)-ethoxy]-acetyl)2-(γGlu)-CO—(CH2)18—CO2H)AQ-Aib-AFIEYLIEGGPSSG-NH2 [Peptide 99]” is 3.61; for “Y-Aib-EGT-αMeF-TSDYSILLDKIAQ-Aib-AFIEYLIK((2-[2-(2-Amino-ethoxy)-ethoxy]-acetyl)2-(γGlu)-CO—(CH2)18—CO2H)GG-NH2 (YXEGTXTSDYSILLDKIAQXAFIEYLIKGG; Aib, αMeF; K lipidated C20 diacid-γGlu-AEEA2; C-terminal amide; (2)..(2) Xaa at position 2 is Aib; (6)..(6) Xaa at position 6 is alpha-methyl-Phe; (20)..(20) Xaa at position 20 is Aib; MOD_RES (28)..(28) Lys at position 28 is chemically modified by conjugation of the epsilon-amino group of the Lys side chain with (2-[2-(2-amino-ethoxy)-ethoxy]-acetyl)2-(gamma-Glu)-CO-(CH2)18- CO2H; MOD_RES (30)..(30) Gly at position 30 is amidated) [Peptide 95]” it is 2.52.
Turning to “Y-Aib-EGT-αMeF-TSDYSILLDKK((2-[2-(2-Amino-ethoxy)-ethoxy]-acetyl)2-(γGlu)-CO—(CH2)18—CO2H)AQ-Aib-AFIEYLIEGGPSSG-NH2 [Peptide 98]”, the “[hGIPR/hGLP1R] EC50 Ratio” value worked out at 6.33.
Turning to “Y-Aib-EGTFTSDY-(D-Ser)-ILLDKK((2-[2-(2-Amino-ethoxy)-ethoxy]-acetyl)2-(γGlu)-CO—(CH2)18—CO2H)AQ-Aib-AFIEYLIEGGPSSGAPPPS-NH2 (YXEGTFTSDYXILLDKKAQXAFIEYLIEGGPSSGAPPPS; Aib, D-Ser, lipidated Lys, C-terminal amide; (2)..(2) Xaa at position 2 is Aib; (11)..(11) Xaa at position 11 is D-Ser; MOD_RES (17)..(17) Lys at position 17 is chemically modified by conjugation of the epsilon-amino group of the Lys side chain with (2-[2-(2-amino-ethoxy)-ethoxy]-acetyl)2-(gamma-Glu)-CO-(CH2)18- CO2H; (20)..(20) Xaa at position 20 is Aib; MOD_RES (39)..(39) Ser at position 39 is amidated) [Peptide 81]”, the “[hGIPR/hGLP1R] EC50 Ratio” value is on record as 5.92.
